Consider three variants from paper PMC5772613, “Phosphorylation induced cochaperone unfolding promotes kinase recruitment and client class-specific Hsp90 phosphorylation” (Nature Communications, 2018).

B1: Full-length human Cdc37 [human] / Catalytic domain of bRaf [not stated] (parent complex)
chain 1: MVDYSVWDHIEVSDDEDETHPNIDTASLFRWRHQARVERMEQFQKEKEELDRGCRECKRKVAECQRKLKELEVAEGGKAELERLQAEAQQLRKEERSWEQKLEEMRKKEKSMPWNVDTLSKDGFSKSMVNTKPEKTEEDSEEVREQKHKTFVEKYEKQIKHFGMLRRWDDSQKYLSDNVHLVCEETANYLVIWCIDLEVEEKCALMEQVAHQTIVMQFILELAKSLKVDPRACFRQFFTKIKTADRQYMEGFNDELEAFKERVRGRAKLRIEKAMKEYEEEERKKRLGPGGLDPVEVYESLPEELQKCFDVKDVQMLQDAISKMDPTDAKYHMQRCIDSGLWVPNSKASEAKEGEEAGPGDPLLEAVPKTGDEKDVSV
chain 2: ITVGQRIGSGSFGTVYKGKWHGDVAVKMLNVTAPTPQQLQAFKNEVGVLRKTRHVNILLFMGYSTKPQLAIVTQWCEGSSLYHHLHIIETKFEMIKLIDIARQTAQGMDYLHAKSIIHRDLKSNNIFLHEDLTVKIGDFGLATVKSRWSGSHQFEQLSGSILWMAPEVIRMQDKNPYSFQSDVYAFGIVLYELMTGQLPYSNINNRDQIIFMVGRGYLSPDLSKVRSNCPKAMKRLMAECLKKKRDERPLFPQILASIELL

In this assay the parent is B1. As to the kind of experiment: ITC; read off a plot. (In general: Isothermal titration calorimetry measures the heat released or taken up as one component is titrated into another.)
As for chain 1 MVDESVWDHIEVSDDEDETHPNIDTASLFRWRHQARVERMEQFQKEKEELDRGCRECKRKVAECQRKLKELEVAEGGKAELERLQAEAQQLRKEERSWEQKLEEMRKKEKSMPWNVDTLSKDGFSKSMVNTKPEKTEEDSEEVREQKHKTFVEKYEKQIKHFGMLRRWDDSQKYLSDNVHLVCEETANYLVIWCIDLEVEEKCALMEQVAHQTIVMQFILELAKSLKVDPRACFRQFFTKIKTADRQYMEGFNDELEAFKERVRGRAKLRIEKAMKEYEEEERKKRLGPGGLDPVEVYESLPEELQKCFDVKDVQMLQDAISKMDPTDAKYHMQRCIDSGLWVPNSKASEAKEGEEAGPGDPLLEAVPKTGDEKDVSV [chain 1 Y4E], the Kd (as a rule, the constant that tells how readily two partners part at equilibrium) was about 1000 nM.
Take chain 1 MVDESVWDHIEVSDDEDETHPNIDTASLFRWRHQARVERMEQFQKEKEELDRGCRECKRKVAECQRKLKELEVAEGGKAELERLQAEAQQLRKEERSWEQKLEEMRKKEKSMPWNVDTLSKDGFSKSMVNTKPEKTEEDSEEVREQKHKTFVEKYEKQIKHFGMLRRWDDSQKYLSDNVHLVCEETANYLVIWCIDLEVEEKCALMEQVAHQTIVMQFILELAKSLKVDPRACFRQFFTKIKTADRQYMEGFNDELEAFKERVRGRAKLRIEKAMKEYEEEERKKRLGPGGLDPVEVEESLPEELQKCFDVKDVQMLQDAISKMDPTDAKYHMQRCIDSGLWVPNSKASEAKEGEEAGPGDPLLEAVPKTGDEKDVSV [chain 1 Y4E, chain 1 Y298E]: the Kd was about 2100 nM.
As for chain 1 MVDYSVWDHIEVSDDEDETHPNIDTASLFRWRHQARVERMEQFQKEKEELDRGCRECKRKVAECQRKLKELEVAEGGKAELERLQAEAQQLRKEERSWEQKLEEMRKKEKSMPWNVDTLSKDGFSKSMVNTKPEKTEEDSEEVREQKHKTFVEKYEKQIKHFGMLRRWDDSQKYLSDNVHLVCEETANYLVIWCIDLEVEEKCALMEQVAHQTIVMQFILELAKSLKVDPRACFRQFFTKIKTADRQYMEGFNDELEAFKERVRGRAKLRIEKAMKEYEEEERKKRLGPGGLDPVEVEESLPEELQKCFDVKDVQMLQDAISKMDPTDAKYHMQRCIDSGLWVPNSKASEAKEGEEAGPGDPLLEAVPKTGDEKDVSV [chain 1 Y298E], the figure is about 1900 nM.
